The text below walks through data of the supplement of paper PMC12764529.

± gives the half width of the 95% confidence interval.

Data set [1] is described as follows: folding stability dG unfold (combined trypsin and chymotrypsin); higher = more stable. The method, boiled down:
(§1)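 Unfolding free energy was derived, per protease or combined, by relating Bayesian-fitted K50 values from sequencing counts to a sequence-predicted unfolded-state K50 and a shared folded-state K50. The underlying digests exposed cysteine-free mini-proteins under 80 residues, in a PA-tagged cDNA display construct, to trypsin and chymotrypsin at 11 threefold-diluted concentrations and to a no-protease condition. A filter kept only designs with AlphaFold2 dimer inter-PAE above 15.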

Data set [2] can be described thus: folding stability dG unfold from chymotrypsin proteolysis; higher = more stable. The method, boiled down: as §1
The nature of data set [3]: folding stability dG unfold from trypsin proteolysis; higher = more stable. The method, boiled down:
as §1

Take “SAGGSLEDFELAGTFPATSEGETLLVTVWKSKEPGKYVVSAYYPSTGIPEVKVVNPEDIEEFFKNLYSAGGS [r8_469_TrMRF]”: the “folding stability dG unfold” value in data set [1] amounted to 1.78 ± 0.054 kcal/mol; in data set [2], 1.95 ± 0.051 kcal/mol; in data set [3] it was 1.48 ± 0.02 kcal/mol.

On to “SAGGSLELPEGAKVEVEVEIEEVDDDTVKIKVKVKFTFINEDGEPETFEAEFEFEIPKEEAEELLGSAGGSA [r2_226_TrMRF]”, for which the results for the “folding stability dG unfold” value in data set [1], in data set [2] and in data set [3] were 3.32 ± 0.13 kcal/mol, 3.66 ± 0.11 kcal/mol and 1.88 ± 0.17 kcal/mol, respectively.

For “SAGGSLFEKLNVKSVEVTEVKTYTLPPLPLTVEVPTVKVTLPDGTVIEFTVIKTYDPEDPTPTVTLGSAGGS [r8_422_JUSTAS]”, the “folding stability dG unfold” value amounted to 1.08 ± 0.07 kcal/mol in data set [1], 1.31 ± 0.12 kcal/mol in data set [2] and 0.822 ± 0.027 kcal/mol in data set [3].

In the case of “SAGGSLKDMPVEDLAKYFARKMGYPITDVKVERNPDPPWIKINIEMEHPNDGRRHPHEIWIPKDDISAGGSA [r2_156_TrROS]”, the “folding stability dG unfold” value in data set [1] amounted to 0.995 ± 0.083 kcal/mol; in data set [2], 1.3 ± 0.11 kcal/mol; in data set [3], 0.527 ± 0.062 kcal/mol.

With “SAGGSLLEQEAAARGYQVEIERIPGTGVYLVTLTPPDGSRVVVTVEVVKTPKTGLVELRTLETRELPPSAGG [r13_936_JUSTAS]”, the “folding stability dG unfold” value in data set [1] is 1.53 ± 0.052 kcal/mol; in data set [2], 1.707 ± 0.011 kcal/mol; in data set [3], 1.24 ± 0.023 kcal/mol.

Take “SAGGSLSEIIEKAKELAKKKYPNKGVTVPVEIKYKDPVKKKWIKVKIEITFDKNGNIIKITIKEIKLESAGG [r13_770_JUSTAS]”: the “folding stability dG unfold” value is 3.91 ± 0.41 kcal/mol in data set [1], 4.04 ± 0.12 kcal/mol in data set [2] and 3.48 ± 0.27 kcal/mol in data set [3].

For “SAGGSMAKILEIIPEEKKIVVEFEGDPKTFPLDEIEEIRIEPEKGYLTIKVGDKVYTIPLDDPNDFSAGGSA [r2_48_TrMRF]”, the figures for the “folding stability dG unfold” value in data set [1], in data set [2] and in data set [3] were 1.81 ± 0.082 kcal/mol, 2.25 ± 0.044 kcal/mol and 0.579 ± 0.027 kcal/mol, respectively.

For “SAGGSMDLRVVVVGEDGKVLELPAGEEVSLPDVVAFFSELGDFEVEAHPESGTLTIRVPKGVLEEASAGGSA [r2_164_TrMRF]”, the “folding stability dG unfold” value is 0.728 ± 0.046 kcal/mol in data set [1], 0.804 ± 0.042 kcal/mol in data set [2] and 0.543 ± 0.02 kcal/mol in data set [3].

As for “SAGGSMEIVKKETFTLEDGRKIEVVYDKETNKYVVKIYNKETGEEVEITVKSKEEAEEALKKLLEESAGGSA [r2_70_TrROS_Hall]”, the “folding stability dG unfold” value in data set [1] worked out at 3.43 ± 0.37 kcal/mol; in data set [2] it was 3.76 ± 0.072 kcal/mol; in data set [3], 1.88 ± 0.13 kcal/mol.

Take “SAGGSMIEEAIEEALKKGLEKVEIEVEVEVNGKIYRVKMEIVKVEEGKVEIKIEVEEIDPETGKLISAGGSA [r2_420_TrROS_Hall]”: the “folding stability dG unfold” value turned out to be 3.53 ± 0.19 kcal/mol in data set [1], 3.92 ± 0.15 kcal/mol in data set [2] and 2.54 ± 0.13 kcal/mol in data set [3].

Consider “SAGGSMIELTLTSTVPDGTPASTVPPEVAREQALAYAEAQGLTVVEIRVEFDPEAGTITIPVVTALSAGGSA [r2_237_JUSTAS]”, for which the “folding stability dG unfold” value in data set [1] was 1.11 ± 0.12 kcal/mol; in data set [2] it was 0.679 ± 0.13 kcal/mol; in data set [3], 1.38 ± 0.042 kcal/mol.

As to “SAGGSMISTLSESVDPAKNTTYYLNLYTEGSRAYGALVTVTTDPATGTKTITTKFPALPEVTTTETVASAGG [r13_615_JUSTAS]”, the entries for the “folding stability dG unfold” value in data set [1], in data set [2] and in data set [3] were 0.551 ± 0.034 kcal/mol, 0.489 ± 0.061 kcal/mol and 0.511 ± 0.026 kcal/mol, respectively.

On to “SAGGSMIVIVEIKPDGTIKIKVRTKDGKEKTIEISKEELEKEETPEEIAEKLAKEFEKEGVEEIEISAGGSA [r2_249_TrROS_Hall]”, for which the “folding stability dG unfold” value was determined as 2.26 ± 0.32 kcal/mol in data set [1], 2.19 ± 0.54 kcal/mol in data set [2] and 2.88 ± 0.26 kcal/mol in data set [3].

“SAGGSMKEIVELGEVEFEEDSVALKVKFKVKLVFYDPETGEKVEEREEELEVYFGGDTLEFSPVEGSAGGSA [r2_271_TrMRF]”: the “folding stability dG unfold” value amounted to 2.08 ± 0.11 kcal/mol in data set [1], 2.373 ± 0.02 kcal/mol in data set [2] and 1.49 ± 0.045 kcal/mol in data set [3].
